Assay results as given in US20100266614A1 (AstraZeneca / MedImmune, published 2010).
Positions count from the first letter of the chain named.

Legend:
[1] = target: T1, RSV F protein (C-terminal truncated F protein secreted from a recombinant baculovirus) (respiratory syncytial virus (RSV), UniProt P03420 26-524); assay: SPR (BIAcore), F protein immobilized by EDC/NHS, Fab injected; calculated from the rate constants
T1 construct: also called F antigen; RSV F antigen

[2] = target: T1, RSV F protein (C-terminal truncated F …); assay: SPR (BIAcore), F protein immobilized by EDC/NHS, Fab injected; kon and koff measured separately
[3] = target: T1, RSV F protein (C-terminal truncated F …); assay: ELISA titration of antibody on 500 ng RSV F antigen; qualitative score from titration curves
[4] = target: T1, RSV F protein (C-terminal truncated F …); assay: SPR (BIAcore), from the kinetic constants of Table 4

T1 sequence (P03420 26-109, chain 1 of 2): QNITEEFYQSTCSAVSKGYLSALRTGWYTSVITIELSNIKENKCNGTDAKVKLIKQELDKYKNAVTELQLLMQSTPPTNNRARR
T1 sequence (P03420 137-524, chain 2 of 2): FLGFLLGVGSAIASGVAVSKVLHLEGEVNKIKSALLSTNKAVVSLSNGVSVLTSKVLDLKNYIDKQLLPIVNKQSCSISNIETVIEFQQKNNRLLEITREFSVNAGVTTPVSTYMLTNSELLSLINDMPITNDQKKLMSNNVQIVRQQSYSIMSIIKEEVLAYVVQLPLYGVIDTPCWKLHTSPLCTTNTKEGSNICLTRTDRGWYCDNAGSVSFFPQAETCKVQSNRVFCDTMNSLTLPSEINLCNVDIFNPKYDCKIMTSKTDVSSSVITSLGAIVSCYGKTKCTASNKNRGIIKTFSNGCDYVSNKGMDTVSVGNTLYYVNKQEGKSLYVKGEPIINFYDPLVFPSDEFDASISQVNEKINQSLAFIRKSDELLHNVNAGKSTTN

B1: clone 3 (PFFF) (Fab, V domains shown)
VH: QVTLRESGPALVKPTQTLTLTCTFSGFSLSTPGMSVGWIRQPPGKALEWLADIWWDDKKDYNPSLKSRLTISKDTSKNQVVLKVTNMDPADTATYYCARSMITNFYFDVWGQGTTVTVSS
VL: DIQMTQSPSTLSASVGDRVTITCSASSSVGYMHWYQQKPGKAPKLLIYDTFKLASGVPSRFSGSGSGTEFTLTISSLQPDDFATYYCFQGSFYPFTFGGGTKVEIK
notes: also called 3 (n = 3)
[1]
  Ka: 8.15e+10 M⁻¹
[2]
  koff: 1.35e-06 s⁻¹
  kon: 110000 M⁻¹ s⁻¹
[3]
  Ag Score: 4 arbitrary score 0-4
[4]
  Kd: ~0.0123 nM

B2: clone 1 (AFSF) (Fab, V domains shown)
VH: B1 VH with P32A
VL: B1 VL with F51S
[1]
  Ka: 6.98e+10 M⁻¹
[2]
  koff: 1.62e-06 s⁻¹
  kon: 113000 M⁻¹ s⁻¹
[3]
  Ag Score: 4 arbitrary score 0-4
[4]
  Kd: ~0.0143 nM

B3: clone 2 (AFFG) (Fab, V domains shown)
VH: B1 VH with P32A
VL: B1 VL with F92G
[1]
  Ka: 7.31e+10 M⁻¹
[2]
  koff: 1.82e-06 s⁻¹
  kon: 133000 M⁻¹ s⁻¹
[3]
  Ag Score: 4 arbitrary score 0-4
[4]
  Kd: ~0.0137 nM

B4: clone 23 (AFFY) (Fab, V domains shown)
VH: B1 VH with P32A
VL: B1 VL with F92Y
[1]
  Ka: 4.03e+11 M⁻¹
[2]
  koff: 3.03e-07 s⁻¹
  kon: 122000 M⁻¹ s⁻¹
[4]
  Kd: ~0.0025 nM
